The target in test [1] is Contiguous 8mer peptides of LY75 protein spanning residues 216 to 1666 of the full length LY75 protein (peptide microarray). Kind of test: peptide microarray, 1 ug/mL LY75_A1, anti-human IgG Alexa 647, scan at 635 nm.
The next test deals with T1, ELTYSNFH
T1 peptide: ELTYSNFH
Kind of test: peptide microarray, 1 µg/mL LY75_A1, anti-human IgG Alexa 647.

The target in another test is T2, LTYSNFHP
T2 peptide: LTYSNFHP
The description is as above.

This note sets out measurements from patent US20160257760A1 (OXFORD BIOTHERAPEUTICS, published 2016).

Protocol for ELTYSNFH: The chip comprised three panels such that the experiment was performed in triplicate. […] The binding assay was performed under the following conditions:—The microarray comprising the contiguous peptides in triplicate was washed with 1 mL of binding buffer at 4° C. for 20 min. […] The array was again washed with 0.5 mL of washing buffer at 4° C. for 30 min.

B1: LY75_A1 monoclonal antibody (antibody, V domains shown)
VH: EVQLVESGGGLVKPGGSLRLSCAASGFTYSNAWMSWVRQAPGKGLEWVGRIKSKTDGGTTDYAAPVQGRFTISRDDSKNTLYLQMNSLKTEDTAVYYCTIFGVVSFDYWGQGTLVTVSS
VL: DVQMTQSPSSLSASVGDRVTITCRASQSISDYLSWYQQRPGKAPNLLIYAASNLKTGVPSRFSGSGSGTDFTLTISTLQPEDFATYYCQQSYRSPWTFGQGTKVEIKR
notes: also called LY75A1 antibody; LY75_A1 antibody
Molecule B1 gave an average signal for all spots on the array (signal intensity (scale 1-65535)) in test [1] of 885. In test [1], this molecule registered a maximum signal intensity (signal intensity (scale 1-65535)) of 25000. The binding result in the test with ELTYSNFH and in the test with LTYSNFHP was “binds” throughout.
